The subject of test [1] is unresectable pancreatic cancer. Description: Clinical activity of DMUC5754A (RECIST) in pancreatic cancer patients. Type of test: in vivo, human. The following applies: PC patients, 2.4 mg/kg q3w, 10 patients treated. Here is the method:
This multicenter, open-label, dose-escalation study was designed to identify the recommended Phase II dose (RP2D) of DMUC5754A in patients with platinum-resistant OC or unresectable pancreatic cancer. In the single-agent dose escalation stage utilizing a 3+3 enrollment scheme, patients were given intravenous DMUC5754A (Genentech Inc.) 0.3-3.2 mg/kg every 3 weeks (q3w) to evaluate the safety, tolerability, and pharmacokinetics of DMUC5754A. Following determination of the maximum tolerated dose (MTD), dose-expansion cohorts were enrolled at the RP2D of 2.4 mg/kg to further characterize the safety and preliminary clinical efficacy of DMUC5754A.
PC patients had histologic documentation of incurable, locally advanced, or metastatic disease for which no standard therapy exists, consisting of unresectable pancreatic ductal adenocarcinoma (i.e., patients with locally advanced or metastatic disease who are not considered eligible for surgical resection with curative intent), including recurrence of previously-resected disease considered unresectable with curative intent. […]
Objective response rate was estimated only for patients with disease that was measurable by RECIST guidelines. Objective response is defined as a complete or partial response, as determined by investigator assessment and confirmed by repeat assessments ≥4 weeks after initial documentation. […]

Test [2] deals with recombinant human MUC16 extracellular domain. The test is described as follows: Binding to recombinant human MUC16 extracellular domain.

“Also recorded” adds a separate entry of the source.

B1: DMUC5754A: antibody-drug conjugate: humanized IgG1 anti-MUC16 monoclonal antibody and MMAE, linked through protease labile linker maleimidocaproyl-valine-citrulline-p-aminobenzyloxycarbonyl (conjugate, chains of the INN, looked up)
VH: EVQLVESGGGLVQPGGSLRLSCAASGYSITNDYAWNWVRQAPGKGLEWVGYISYSGYTTYNPSLKSRFTISRDTSKNTLYLQMNSLRAEDTAVYYCARWTSGLDYWGQGTLVTVSS
VL: DIQMTQSPSSLSASVGDRVTITCKASDLIHNWLAWYQQKPGKAPKLLIYGATSLETGVPSRFSGSGSGTDFTLTISSLQPEDFATYYCQQYWTTPFTFGQGTKVEIK
modifications: MMAE via mc-vc-PABC linker
Regarding B1, the radiographic responses entry in test [1] is reported as “No patients; also recorded: no radiologic responses”. Further, the binding affinity result in test [2] is “high affinity”.

(Values after patent US11440969B2, “Use of human epididymis protein 4 (HE4) for assessing responsiveness of MUC 16-positive cancer treatment” (Genentech, Inc., priority 2016, dated 2022).)
